In assay [1] the target is T1, murine MSH receptor (mouse, UniProt Q01727 1-315).
T1 construct: whole, on cells; Stably transfected in 293 cells for the adenylyl cyclase assays; also called mMSH-R; mouse MSH-R
In words: competition binding against 125I-ACTH1-39 on Cloudman M-3 melanoma cells, single-site model.
Procedure: To investigate this further, the ability of the protein to compete with another melanocortin peptide for binding to the mouse MSH-R was examined. […] Competition binding studies were performed with ¹²⁵I-labelled ACTH₁₋₃₉ and the M-3 subclone of the Cloudman murine melanoma cell line.

Assay [2] has as its target T1, murine MSH receptor. The experiment in a line: cell-based or functional assay.
The target in a further assay is human MSH receptor (human, UniProt Q01726 1-317). The experiment in a line: cell-based or functional assay.
Chain of human MSH receptor (Q01726 whole entry): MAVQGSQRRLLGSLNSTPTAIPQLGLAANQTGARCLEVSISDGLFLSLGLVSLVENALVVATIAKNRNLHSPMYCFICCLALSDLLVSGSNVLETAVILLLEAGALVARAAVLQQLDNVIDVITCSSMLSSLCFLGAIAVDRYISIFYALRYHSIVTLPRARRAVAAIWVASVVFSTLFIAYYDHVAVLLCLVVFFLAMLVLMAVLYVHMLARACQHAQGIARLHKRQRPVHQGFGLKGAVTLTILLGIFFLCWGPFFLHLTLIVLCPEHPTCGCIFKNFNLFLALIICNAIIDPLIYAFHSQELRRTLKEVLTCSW

As a reminder, the IC50 is the concentration needed to halve the response being measured. Read a low IC50 as inhibition by little substance. The Ki is a measure of affinity in units of concentration, obtained from inhibition or displacement.

T1 sequence (Q01727 whole entry): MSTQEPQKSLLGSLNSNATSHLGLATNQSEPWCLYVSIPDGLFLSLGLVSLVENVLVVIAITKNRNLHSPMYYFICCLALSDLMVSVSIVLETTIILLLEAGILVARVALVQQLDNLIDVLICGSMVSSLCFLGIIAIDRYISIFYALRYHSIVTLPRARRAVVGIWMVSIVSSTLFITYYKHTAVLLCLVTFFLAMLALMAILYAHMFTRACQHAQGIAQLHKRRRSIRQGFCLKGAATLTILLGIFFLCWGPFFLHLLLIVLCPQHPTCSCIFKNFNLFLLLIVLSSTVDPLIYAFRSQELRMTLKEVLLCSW

B1: recombinant murine agouti protein (ligand)
chain: HLALEETLGDDRSLRSNSSMNSLDFSSVSIVALNKKSKKISRKEAEKRKRSSKKKASMKKVARPPPPSPCVATRDSCKPPAPACCDPCASCQCRFFGSACTCRVLNPNC
notes: Full-length mouse agouti cDNA expressed by baculovirus in T. ni cells; also called mouse agouti; agouti polypeptide
In the assay with murine MSH receptor [1], B1 displayed an IC50 of 1.2 ng/mL and a Ki of 660 pM. The “apparent Ki (antagonism of α-MSH-stimulated adenylyl cyclase, four independent studies)” value in the assay with murine MSH receptor [2] amounted to 320 pM.

B2: recombinant human agouti protein (ligand)
chain: HLPPEEKLRDDRSLRSNSSVNLLDVPSVSIVALNKKSKQIGRKAAEKKRSSKKEASMKKVVRPRTPLSAPCVATRNSCKPPAPACCDPCASCQCRFFRSACSCRVLSLNC
On to B2, for which the “EC50 of the [Ca^2+]i dose response in the HEK-293 MC1R line” value with human MSH receptor was about 18000 pM.

These data come from US20020151463A1 (UT BATTELLE, published 2002).
